Measurements: US20260356958 (published 2026)
Residue numbers refer to the chain shown, from its start. Where two headings read alike, the source gives them in different places.

Legend:
Assay in all cases: SPR, 25C
hIL-36R-His [1] = biological target: T1, hIL-36R-His (human)
T1 chain: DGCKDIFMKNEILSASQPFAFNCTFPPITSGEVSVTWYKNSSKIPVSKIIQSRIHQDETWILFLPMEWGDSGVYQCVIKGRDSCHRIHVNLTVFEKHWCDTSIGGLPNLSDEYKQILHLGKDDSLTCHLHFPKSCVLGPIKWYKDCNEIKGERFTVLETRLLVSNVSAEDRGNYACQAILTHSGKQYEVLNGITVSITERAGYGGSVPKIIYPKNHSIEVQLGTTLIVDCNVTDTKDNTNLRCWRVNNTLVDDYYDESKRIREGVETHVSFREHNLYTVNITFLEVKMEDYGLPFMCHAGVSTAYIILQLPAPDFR

hIL-36R-His [2] = biological target: T1, hIL-36R-His
hIL-36R-His [3] = biological target: T1, hIL-36R-His
hIL-1R3-His [4] = biological target: hIL-1R3-His (human)
Chain of hIL-1R3-His (human) (chain, as listed by the source): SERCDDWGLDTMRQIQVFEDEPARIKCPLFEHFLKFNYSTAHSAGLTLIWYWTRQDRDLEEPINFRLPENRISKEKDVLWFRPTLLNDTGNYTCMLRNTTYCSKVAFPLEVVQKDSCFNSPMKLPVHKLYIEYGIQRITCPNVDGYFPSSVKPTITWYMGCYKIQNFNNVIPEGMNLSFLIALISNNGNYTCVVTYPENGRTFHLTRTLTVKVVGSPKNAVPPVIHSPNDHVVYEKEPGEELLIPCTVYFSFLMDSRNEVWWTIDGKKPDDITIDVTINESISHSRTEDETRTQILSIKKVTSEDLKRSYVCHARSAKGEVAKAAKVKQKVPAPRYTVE

hIL-1R3-His [5] = biological target: hIL-1R3-His (human); remark: listed apart in the source

B1: Common light chain bispecific antibody, IL-36R arm (R72B7VH+L36E9VK) (antibody, V domains shown)
VH: QVQLVQSGAEVKKPGASVKVSCKASGYSFTSSWIHWVKQAPGQGLEWMGEINPGNVRSNYNENFRNKVTMTVDTSISTAYMELSRLRSDDTAVYYCTVINYGEPYFASWGQGTLVTVSS
VL: EIVLTQSPGTLSLSPGERATLSCRASQSVIGSYLAWYQQKPGQAPRLLIYSASKLASGIPDRFSGSGSGTDFTLTISRLEPEDFAVYYCQQDTRYPITFGQGTKVEIK
Question: How did the Kd (hIL-36R-His [1]) turn out when B1 was run?
Answer: 1.29 nM

B2: Crossmab bispecific antibody, IL-36R arm (antibody, V domains shown)
VH: B1 VH with K38R, N55S, V56G, R65Q, N66G, K67R, I99V, N100F, A107P, S108F
VL: B1 VL with G31Y, L55R, D92H, T93A, R94G, Y95I, I97V
Question: Which Kd (hIL-36R-His [2]) does the source give for B2 here?
Answer: 0.669 nM

B3: R49E11VH-h3+L26B11VK (antibody, V domains shown)
VH: B1 VH with K38R, N55S, V56G, R65Q, N66G, K67R, I99V, N100F, A107P, S108F
VL: B1 VL with G31Y, L55R, D92H, T93A, R94G, Y95I, I97V
Question: How did the Kd (hIL-36R-His [3]) turn out when B3 was run?
Answer: 2.91 nM

B4: Crossmab bispecific antibody, IL-1R3 arm (antibody, V domains shown)
VH: EVQLVESGGGLVQPGGSLRLSCAASGFTFSSYAMSWVRQAPGKGLVWVAEISRGGSHTYYPDTVTGRFTISRDNAKNTLYLQMNSLRAEDTAVYYCARSYGNYPFDYWGQGTTVTVSS
VL: EIVLTQSPATLSLSPGERATLSCSASSSVSYMYWYQQKPGQAPRLLIYDTSNLASGIPARFSGSGSGTDFTLTISSLEPEDFAVYYCQQWSSYPLTFGQGTKLEIK
Question: With B4 as the binder, how does the Kd (hIL-1R3-His [4]) read?
Answer: 0.761 nM

B5: Common light chain bispecific antibody, IL-1R3 arm (R1B9VH-h1+L36E9VK) (antibody, V domains shown)
VH: B4 VH
VL: B1 VL
Question: How did the Kd (hIL-1R3-His [5]) turn out when B5 was run?
Answer: 1.44 nM
